± gives the standard deviation of the averaged measurements.
System: ATP
Assay: switch fluorescence ratio, 500 uM ATP over buffer (Cy3 cluster intensity, sum of 5 cycles each) (fold (ratio)); higher = stronger signal-on switching upon ATP binding; sequences stand for … in TCGTCGGCAGCGTCAGATGTGTATAAGAGACAGTTTTTTTTTTTTTTTTTTTTTTTTT…TC
Conditions: aptamer strand: ATP DNA aptamer (quencher-CACCTGGGGGAGTATTGCGGAGGAAGG + anchor), 100 nM annealed; ATP concentration: 500 uM
Outline: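 After annealing to 100 nM quencher-labelled ATP aptamer, Cy3-labelled switching-strand clusters on a modified Illumina MiSeq flow-cell were imaged in selection buffer. A second image followed after 15 min with 500 uM ATP at 22 °C, and five such buffer/ATP cycles were done, each separated by NaOH stripping and re-annealing. The fluorescence ratio, averaged per switch-domain sequence, is summed target-cycle over summed buffer-cycle Cy3 intensity per cluster, with clusters outside 100-1000 RFU excluded.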
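Note: ATP exposure 15 min at 22 °C before imaging.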

| Sequence | switch fluorescence ratio |
| --- | --- |
| TTATGTTTGG | 1.02 ± 0.033 |
| TTATGTTTTT | 1.01 ± 0.025 |
| TTATTAAGGG | 0.98 ± 0.047 |
| TTATTAATAC | 1.177 ± 0.0012 |
| TTATTACGTG | 1.01 ± 0.023 |
| TTATTAGCTT | 0.9916 ± 0.004 |
| TTATTAGTAG | 1.002 ± 0.0049 |
| TTATTAGTGC | 1.03 ± 0.1 |
| TTATTAGTTT | 0.994 ± 0.017 |
| TTATTATACG | 1.01 ± 0.054 |
| TTATTATTGA | 0.989 ± 0.011 |
| TTATTCGGCG | 1 ± 0.032 |
| TTATTGATCC | 0.9978 ± 0.0019 |
| TTATTGGCGG | 1.015 ± 0.0097 |
| TTATTGGTTT | 1.048 ± 0.0096 |
| TTATTGTTGA | 1.02 ± 0.011 |
| TTATTTATTA | 1.0338 ± 0.00047 |
| TTATTTCAAC | 0.9728 ± 0.0052 |
| TTATTTGACT | 1.01 ± 0.041 |
| TTATTTGATT | 1.01 ± 0.029 |
| TTATTTGCCT | 1.17 ± 0.18 |
| TTATTTGCTG | 1.02 ± 0.056 |
| TTATTTGGCC | 0.997 ± 0.032 |
| TTATTTGTGG | 0.97 ± 0.02 |
| TTATTTGTTT | 0.977 ± 0.018 |
| TTATTTTAAA | 1.01 ± 0.024 |

| Sequence | switch fluorescence ratio |
| --- | --- |
| TTATTTTCAC | 1.04 ± 0.036 |
| TTATTTTGGT | 1.01 ± 0.035 |
| TTATTTTGTA | 1.03 ± 0.013 |
| TTCAAACGAG | 1.01 ± 0.031 |
| TTCAAAGTTT | 0.993 ± 0.015 |
| TTCAAATGGG | 0.9991 ± 0.0053 |
| TTCAACTTAT | 0.954 ± 0.049 |
| TTCAAGCGTT | 0.982 ± 0.019 |
| TTCAAGCTTT | 1.01 ± 0.022 |
| TTCAAGGATA | 0.986 ± 0.05 |
| TTCAAGTGAA | 0.979 ± 0.012 |
| TTCAAGTTAT | 1.04 ± 0.045 |
| TTCAAGTTGG | 0.974 ± 0.024 |
| TTCAATAGGA | 1.03 ± 0.045 |
| TTCAATGGCA | 1.0245 ± 0.00028 |
| TTCAATTTGG | 1.01 ± 0.021 |
| TTCACAAGG | 1.0218 ± 0.00034 |
| TTCACGGCCC | 1.04 ± 0.013 |
| TTCACGGGAT | 1.06 ± 0.035 |
| TTCACGGGTT | 1.01 ± 0.021 |
| TTCACGGTCG | 1.03 ± 0.024 |
| TTCACTATTT | 1.02 ± 0.028 |
| TTCAGCTTTT | 0.984 ± 0.037 |
| TTCAGGATA | 1.01 ± 0.033 |
| TTCAGGGGGG | 1.02 ± 0.033 |
| TTCAGGGTCC | 1.03 ± 0.035 |

| Sequence | switch fluorescence ratio |
| --- | --- |
| TTCAGTGGTG | 0.965 ± 0.053 |
| TTCAGTGTTA | 1.017 ± 0.0058 |
| TTCAGTTCGA | 0.9971 ± 0.0057 |
| TTCAGTTGGT | 0.987 ± 0.017 |
| TTCATAGCTT | 1.02 ± 0.043 |
| TTCATATGCG | 0.995 ± 0.016 |
| TTCATATTAT | 0.9472 ± 0.0062 |
| TTCATATTGT | 0.955 ± 0.024 |
| TTCATCCGTA | 1.39 ± 0.23 |
| TTCATCGTCT | 1.01 ± 0.042 |
| TTCATGCCTG | 1.12 ± 0.092 |
| TTCATGGGAG | 0.99 ± 0.022 |
| TTCATGGGG | 0.9879 ± 0.0094 |
| TTCATGTGTT | 1.04 ± 0.037 |
| TTCATTCATG | 0.97 ± 0.0033 |
| TTCATTGTTT | 1.01 ± 0.02 |
| TTCATTTTTT | 1.02 ± 0.041 |
| TTCCAAGACA | 1.01 ± 0.026 |
| TTCCAATAAG | 1.01 ± 0.02 |
| TTCCAATAGG | 1.13 ± 0.21 |
| TTCCACGTAT | 1.18 ± 0.046 |
| TTCCACGTTT | 1.11 ± 0.12 |
| TTCCAGGGCA | 1.02 ± 0.022 |
| TTCCAGTTT | 1 ± 0.04 |
| TTCCATAGGG | 0.987 ± 0.022 |
| TTCCATCACA | 1.01 ± 0.021 |

| Sequence | switch fluorescence ratio |
| --- | --- |
| TTCCCATGGG | 1.02 ± 0.027 |
| TTCCCGGGTG | 1.53 ± 0.55 |
| TTCCCTTATG | 0.976 ± 0.017 |
| TTCCCTTTTG | 1.02 ± 0.0057 |
| TTCCGAAAAT | 1.01 ± 0.046 |
| TTCCGAGTTT | 1.15 ± 0.19 |
| TTCCGCACGT | 2.64 ± 1.3 |
| TTCCGGAGAT | 1.43 ± 0.34 |
| TTCCGGCTCT | 1.61 ± 0.8 |
| TTCCGGGGGG | 1.02 ± 0.054 |
| TTCCGGGGTA | 1.02 ± 0.032 |
| TTCCGTTTTA | 1.15 ± 0.17 |
| TTCCTCCTTC | 1.83 ± 0.89 |
| TTCCTCGTTA | 1.39 ± 0.029 |
| TTCCTGATGC | 1.04 ± 0.092 |
| TTCCTGTCGT | 1.004 ± 0.0021 |
| TTCCTTATTA | 1.02 ± 0.011 |
| TTCGAAAAAG | 0.9961 ± 0.008 |
| TTCGAAGGGT | 1.09 ± 0.1 |
| TTCGAATGTG | 1.01 ± 0.028 |
| TTCGAATTGT | 0.976 ± 0.037 |
| TTCGATAGCA | 1.06 ± 0.058 |
| TTCGCGGCTA | 1.07 ± 0.016 |
| TTCGCGTTTT | 1.02 ± 0.04 |
| TTCGGACGT | 1.02 ± 0.013 |
| TTCGGAGAAT | 1.16 ± 0.23 |

| Sequence | switch fluorescence ratio |
| --- | --- |
| TTCGGATGAG | 0.977 ± 0.041 |
| TTCGGATGGG | 1 ± 0.034 |
| TTCGGCCACG | 1.01 ± 0.036 |
| TTCGGGAACT | 1 ± 0.038 |
| TTCGGGAGTG | 0.985 ± 0.02 |
| TTCGGGATGA | 1 ± 0.056 |
| TTCGGGCGGA | 0.98 ± 0.011 |
| TTCGGGGCAT | 1.05 ± 0.097 |
| TTCGGGGCCA | 0.991 ± 0.013 |
| TTCGGGGGT | 0.983 ± 0.024 |
| TTCGGGGGTG | 1.01 ± 0.031 |
| TTCGGGTCCG | 0.988 ± 0.067 |
| TTCGGGTTAA | 1.05 ± 0.017 |
| TTCGGTAGTG | 0.9923 ± 0.0083 |
| TTCGGTCCGT | 0.981 ± 0.026 |
| TTCGGTCGTA | 1.01 ± 0.053 |
| TTCGGTGGGA | 1.07 ± 0.02 |
| TTCGGTTAGA | 1.02 ± 0.015 |
| TTCGGTTGGA | 0.984 ± 0.017 |
| TTCGTAACGC | 1.03 ± 0.038 |
| TTCGTAATGT | 1.036 ± 0.0083 |
| TTCGTAGCAG | 1.23 ± 0.063 |
| TTCGTCATGG | 1.027 ± 0.0075 |
| TTCGTCGGGC | 0.9863 ± 0.0071 |
| TTCGTGACCT | 1.1 ± 0.094 |
| TTCGTGGTTT | 1.032 ± 0.0055 |

| Sequence | switch fluorescence ratio |
| --- | --- |
| TTCGTTACAG | 0.998 ± 0.027 |
| TTCGTTGAAT | 0.97 ± 0.024 |
| TTCGTTTAAT | 0.9989 ± 0.0017 |
| TTCGTTTACA | 1.01 ± 0.028 |
| TTCGTTTGCT | 0.955 ± 0.035 |
| TTCGTTTTGT | 0.9975 ± 0.0097 |
| TTCGTTTTTT | 0.985 ± 0.047 |
| TTCTAAAGAT | 0.969 ± 0.034 |
| TTCTAAAGGT | 1.02 ± 0.04 |
| TTCTAAGGGA | 1.01 ± 0.023 |
| TTCTAAGGTC | 0.978 ± 0.036 |
| TTCTAATCCG | 1.036 ± 0.0091 |
| TTCTACGGGC | 1.11 ± 0.025 |
| TTCTACTAGT | 0.98 ± 0.024 |
| TTCTATAATT | 1.03 ± 0.02 |
| TTCTATATTT | 1.01 ± 0.055 |
| TTCTATGGAA | 1.01 ± 0.016 |
| TTCTATGGTG | 1 ± 0.04 |
| TTCTATTTGA | 1.0138 ± 0.00028 |
| TTCTCAATGT | 1.08 ± 0.14 |
| TTCTCAGGGG | 1.12 ± 0.038 |
| TTCTCAGTTT | 1.15 ± 0.22 |
| TTCTCATTGG | 0.9893 ± 0.0039 |
